Laboratory results as given in the RNAGym collection of RNA variant scans (doi:10.7554/elife.80360).

B1: Twister Ribozyme (parent)
chain: AACACUGCCAAUGCCGGUCCCAAGCCCGGAUAAAAGUGGAGGGGGCGG

Variants of: B1
Assay: self-cleavage, relative activity (ratio to wild type); higher = more cleavage; co-transcriptional

Point of comparison: AACACUGCCAAUGCCGGUCCCAAGCACGGAUAAAAGUGCAGGGGGCGG, self-cleavage 0.0938. Against it:
- AACACUGCCAAUGCCGGUCCCAAGCGCGGAUAAAAGUGGUGGGGGCGG — higher, 0.12
- AACACUGCCAAUGCCGGUCCCAAGCGCGGAUAAAAGUGGCGGGGGCGG — higher, 0.113
- AACACUGCCAAUGCCGGUCCCAAGGCCGGAUAAAAGUGUAGGGGGCGG — higher, 0.121
- AACACUGCCAAUGCCGGUCCCAAGGCCGGAUAAAAGUGCAGGGGGCGG — higher, 0.109
- AACACUGCCAAUGCCGGUCCCAAGCGCGUAUAAAAGUGGAGGGGGCGG — lower, 0.0569
- AACACUGCCAAUGCCGGUCCCAAGCGCGAAUAAAAGUGGAGGGGGCGG — higher, 0.132
- AACACUGCCAAUGCCGGUCCCAAGCGCGCAUAAAAGUGGAGGGGGCGG — higher, 0.134
- AACACUGCCAAUGCCGGUCCCAAGUCCGGAUACAAGUGGAGGGGGCGG — higher, 0.791
- AACACUGCCAAUGCCGGUCCCAAGUUCGGAUAAAAGUGGAGGGGGCGG — higher, 0.132
- AACACUGCCAAUGCCGGUCCCAAGUGCGGAUAAAAGUGGAGGGGGCGG — higher, 0.131
- AACACUGCCAAUGCCGGUCCCAAGCACGGAUAAAAGUGGAGUGGGCGG — higher, 0.109
- AACACUGCCAAUGCCGGUCCCAAGUCCGGAUAAAAGUGAAGGGGGCGG — higher, 0.141
- AACACUGCCAAUGCCGGUCCCAAGCGCGGCUAAAAGUGGAGGGGGCGG — lower, 0.0641
- AACACUGCCAAUGCCGGUCCCAAGCGCGGUUAAAAGUGGAGGGGGCGG — higher, 0.295
- AACACUGCCAAUGCCGGUCCCAAGUCCGGAUAAAAGUGGAGGAGGCGG — higher, 0.151
- AACACUGCCAAUGCCGGUCCCAAGUCCGGAUAAAAGUGGAGGCGGCGG — higher, 0.102
- AACACUGCCAAUGCCGGUCCCAAGCGCGGAUAAAUGUGGAGGGGGCGG — higher, 0.497
- AACACUGCCAAUGCCGGUCCCAAGCAAGGAUAAAAGUGGAGGGGGCGG — higher, 0.173
- AACACUGCCAAUGCCGGUCCCAAGGCCGGAUAAAAGUGGAGGGGGCGU — higher, 0.21
- AACACUGCCAAUGCCGGUCCCAAGGCCGGAUAAAAGUGGAGGGGGCGC — higher, 0.167
- AACACUGCCAAUGCCGGUCCCAAGGCCGGAUAAAAGUGGAGGGGGCGA — higher, 0.193
- AACACUGCCAAUGCCGGUCCCAAGCGCGGAUAAAAGUGGAGGGGGAGG — higher, 0.153
- AACACUGCCAAUGCCGGUCCCAAGCGCGGAUAAAAGUGGAGGGGGGGG — higher, 0.218
- AACACUGCCAAUGCCGGUCCCAAGCACGGAUAAAAAUGGAGGGGGCGG — lower, 0.0875
- AACACUGCCAAUGCCGGUCCCAAGUCCGGAUAAAAGUGGAGGGGACGG — higher, 0.587
- AACACUGCCAAUGCCGGUCCCAAGUCCGGAUAAAAGUGGAGGGGUCGG — higher, 0.592
- AACACUGCCAAUGCCGGUCCCAAGCGUGGAUAAAAGUGGAGGGGGCGG — lower, 0.0811
- AACACUGCCAAUGCCGGUCCCAAGCGCGGAUAAAAGUUGAGGGGGCGG — higher, 0.0977
- AACACUGCCAAUGCCGGUCCCAAGCGCGGAUAAAAGUAGAGGGGGCGG — higher, 0.0967
- AACACUGCCAAUGCCGGUCCCAAGUCCUGAUAAAAGUGGAGGGGGCGG — higher, 0.724
- AACACUGCCAAUGCCGGUCCCAAGUCCCGAUAAAAGUGGAGGGGGCGG — higher, 0.412
- AACACUGCCAAUGCCGGUCCCAAGCGCGGAUAAAAGUGGAGGUGGCGG — higher, 0.138
- AACACUGCCAAUGCCGGUCCCAAGCGCGGAUAAAAGUGGAGGGCGCGG — higher, 0.149
- AACACUGCCAAUGCCGGUCCCAAGUCCGGAUAAAAGUGGAAGGGGCGG — higher, 0.194
- AACACUGCCAAUGCCGGUCCCAAGUCCGGAUAAAAGUGGAUGGGGCGG — higher, 0.198
- AACACUGCCAAUGCCGGUCCCAAGCACGGAUAAAAGUGGAGGGGGCGU — higher, 0.355
- AACACUGCCAAUGCCGGUCCCAAGCACGGAUAAAAGUGGAGGGGGCGA — higher, 0.304
- AACACUGCCAAUGCCGGUCCCAAGCACGGAUAAAAGUGGAGGGGGCGC — higher, 0.434
- AACACUGCCAAUGCCGGUCCCAAGCGCGGAUAAAAGUGGAGGGGUCGG — higher, 0.156
- AACACUGCCAAUGCCGGUCCCAAGGCCGGAUAAAAGUGGAGGGUGCGG — higher, 0.197
- AACACUGCCAAUGCCGGUCCCAAGGCCGGAUAAAAGUGGAGGGCGCGG — higher, 0.248
- AACACUGCCAAUGCCGGUCCCAAGCGCGGAUAGAAGUGGAGGGGGCGG — higher, 0.154
- AACACUGCCAAUGCCGGUCCCAAGCGCGGAUAUAAGUGGAGGGGGCGG — higher, 0.135
- AACACUGCCAAUGCCGGUCCCAAGUCAGGAUAAAAGUGGAGGGGGCGG — higher, 0.509
- AACACUGCCAAUGCCGGUCCCAAGUCGGGAUAAAAGUGGAGGGGGCGG — higher, 0.101
- AACACUGCCAAUGCCGGUCCCAAGUCUGGAUAAAAGUGGAGGGGGCGG — higher, 0.74
- AACACUGCCAAUGCCGGUCCCAAGCGCGGAUAAAAGUGGAAGGGGCGG — higher, 0.128
- AACACUGCCAAUGCCGGUCCCAAGUCCGGAUAAUAGUGGAGGGGGCGG — higher, 0.633
- AACACUGCCAAUGCCGGUCCCAAGUCCGGAUAAAAGUGGAGGGGGCAG — higher, 0.663
- AACACUGCCAAUGCCGGUCCCAAGUCCGGAUAAAAGUGGAGGGGGCCG — higher, 0.248
- AACACUGCCAAUGCCGGUCCCAAGUCCGGAUCAAAGUGGAGGGGGCGG — higher, 0.903
- AACACUGCCAAUGCCGGUCCCAAGUCCGGAUGAAAGUGGAGGGGGCGG — higher, 0.804
- AACACUGCCAAUGCCGGUCCCAAGCACGGAUAAAAGUGGAGGGAGCGG — higher, 0.562
- AACACUGCCAAUGCCGGUCCCAAGCACGGAUAAAAGUGGAGGGUGCGG — higher, 0.456
- AACACUGCCAAUGCCGGUCCCAAGCGCGGAUGAAAGUGGAGGGGGCGG — higher, 0.316
- AACACUGCCAAUGCCGGUCCCAAGCGCGGAUCAAAGUGGAGGGGGCGG — higher, 0.141
- AACACUGCCAAUGCCGGUCCCAAGCGCAGAUAAAAGUGGAGGGGGCGG — higher, 0.101
- AACACUGCCAAUGCCGGUCCCAAGCACGGAUAAAAGUCGAGGGGGCGG — higher, 0.395
- AACACUGCCAAUGCCGGUCCCAAGCACGGAUAUAAGUGGAGGGGGCGG — higher, 0.534
- AACACUGCCAAUGCCGGUCCCAAGCGCGGAUAAAAGUGGAGUGGGCGG — higher, 0.13
- AACACUGCCAAUGCCGGUCCCAAGUCCGGAUAAAAGUGGAGGGUGCGG — higher, 0.809
- AACACUGCCAAUGCCGGUCCCAAGUCCGGAUAAAAGUGGAGGGAGCGG — higher, 0.811
- AACACUGCCAAUGCCGGUCCCAAGGCCGGAUAAAAGUGGAGGUGGCGG — higher, 0.133
- AACACUGCCAAUGCCGGUCCCAAGCACGGAUAAGAGUGGAGGGGGCGG — higher, 0.156
- AACACUGCCAAUGCCGGUCCCAAGCACGGAUAAUAGUGGAGGGGGCGG — higher, 0.177
- AACACUGCCAAUGCCGGUCCCAAGCACGGAUAACAGUGGAGGGGGCGG — lower, 0.0918
- AACACUGCCAAUGCCGGUCCCAAGCGCGGAUAAAAGUGAAGGGGGCGG — higher, 0.0939
- AACACUGCCAAUGCCGGUCCCAAGUCCGGAUAAAAGGGGAGGGGGCGG — higher, 0.332
- AACACUGCCAAUGCCGGUCCCAAGCACGGAUAAAAGUGGAGGGGCCGG — higher, 0.123
- AACACUGCCAAUGCCGGUCCCAAGCACGGGUAAAAGUGGAGGGGGCGG — higher, 0.348
- AACACUGCCAAUGCCGGUCCCAAGCGCGGAUAAAAGUGGAGGGGGCGU — higher, 0.146
- AACACUGCCAAUGCCGGUCCCAAGCGCGGAUAAAAGUGGAGGGGGCGC — higher, 0.229
- AACACUGCCAAUGCCGGUCCCAAGCACGGAUGAAAGUGGAGGGGGCGG — higher, 0.636
- AACACUGCCAAUGCCGGUCCCAAGUCCGGAUAAAAGUAGAGGGGGCGG — higher, 0.581
- AACACUGCCAAUGCCGGUCCCAAGUCCGGAUAAAAGUGGGGGGGGCGG — higher, 0.121
- AACACUGCCAAUGCCGGUCCCAAGCACAGAUAAAAGUGGAGGGGGCGG — higher, 0.168
- AACACUGCCAAUGCCGGUCCCAAGCACGGAUAAAUGUGGAGGGGGCGG — higher, 0.732
- AACACUGCCAAUGCCGGUCCCAAGCACGGAUAAAGGUGGAGGGGGCGG — higher, 0.219
- AACACUGCCAAUGCCGGUCCCAAGUCCGGAUAAAAGUGGAGCGGGCGG — higher, 0.154
- AACACUGCCAAUGCCGGUCCCAAGUCCGGAUAAAAGUGGAGAGGGCGG — higher, 0.148
- AACACUGCCAAUGCCGGUCCCAAGUCCGGAUAAAAGUGGAGUGGGCGG — higher, 0.0953
- AACACUGCCAAUGCCGGUCCCAAGCGCGGAAAAAAGUGGAGGGGGCGG — higher, 0.427
- AACACUGCCAAUGCCGGUCCCAAGCGCGGACAAAAGUGGAGGGGGCGG — higher, 0.165
- AACACUGCCAAUGCCGGUCCCAAGCGCGGAUAACAGUGGAGGGGGCGG — lower, 0.0761
- AACACUGCCAAUGCCGGUCCCAAGCACGGAUAAAAGUGGUGGGGGCGG — higher, 0.107
- AACACUGCCAAUGCCGGUCCCAAGCACGGAUAAAAGUGGCGGGGGCGG — higher, 0.119
- AACACUGCCAAUGCCGGUCCCAAGCACGGAUAAAAGGGGAGGGGGCGG — higher, 0.17
- AACACUGCCAAUGCCGGUCCCAAGCACGGAUAAAAGAGGAGGGGGCGG — higher, 0.118
- AACACUGCCAAUGCCGGUCCCAAGGCCGGAGAAAAGUGGAGGGGGCGG — higher, 0.393
- AACACUGCCAAUGCCGGUCCCAAGUCCGGAUAAAGGUGGAGGGGGCGG — higher, 0.46
- AACACUGCCAAUGCCGGUCCCAAGUCCGGAUAAAUGUGGAGGGGGCGG — higher, 0.764
- AACACUGCCAAUGCCGGUCCCAAGGCCGGAUAAAAGCGGAGGGGGCGG — higher, 0.102
- AACACUGCCAAUGCCGGUCCCAAGCACGGAUAAAAGUGGAGGGGGAGG — higher, 0.338
- AACACUGCCAAUGCCGGUCCCAAGGCCGGAUAAAAGUGGAGUGGGCGG — higher, 0.112
- AACACUGCCAAUGCCGGUCCCAAGCGCGGAUAAAACUGGAGGGGGCGG — lower, 0.0652
- AACACUGCCAAUGCCGGUCCCAAGCACGGAGAAAAGUGGAGGGGGCGG — higher, 0.691
- AACACUGCCAAUGCCGGUCCCAAGUCCGGCUAAAAGUGGAGGGGGCGG — higher, 0.53
- AACACUGCCAAUGCCGGUCCCAAGCACGGAUAAAAGUGGAGGGGGCUG — higher, 0.144
- AACACUGCCAAUGCCGGUCCCAAGUCCGGAUAAAAAUGGAGGGGGCGG — higher, 0.263
- AACACUGCCAAUGCCGGUCCCAAGUCCGGAGAAAAGUGGAGGGGGCGG — higher, 0.627
- AACACUGCCAAUGCCGGUCCCAAGUCCGGAAAAAAGUGGAGGGGGCGG — higher, 0.666
- AACACUGCCAAUGCCGGUCCCAAGGCCGGAUAAAAGUGGACGGGGCGG — higher, 0.133
- AACACUGCCAAUGCCGGUCCCAAGGCCGGAUAAAAGUGGAUGGGGCGG — higher, 0.133
- AACACUGCCAAUGCCGGUCCCAAGCACGGAUAAAAGUGGAAGGGGCGG — higher, 0.101
- AACACUGCCAAUGCCGGUCCCAAGCACGGAUAAAAGUGGAUGGGGCGG — higher, 0.154
- AACACUGCCAAUGCCGGUCCCAAGCACGGAUAAAAGUGGACGGGGCGG — higher, 0.124
- AACACUGCCAAUGCCGGUCCCAAGUCCGGAUAAAAGUGGAGGGGGCGU — higher, 0.813
